Reference: paper PMC8079274

Biological target: KSR1 in KSR1+/+ mouse embryo fibroblasts (cells that overexpress KSR1) (UniProt Q61097)
Test: proximity ligation; fixed serum-starved KSR1+/+ MEFs, anti-KSR1 with anti-pERK or anti-ERK antibodies, Duolink; vehicle or 40 μM CGS9343B for 16 h, then vehicle or 100 ng/ml EGF for 5 min; spots per cell, vehicle set to 1

Sequence of KSR1 in KSR1+/+ mouse embryo fibroblasts (cells that overexpress KSR1) (Q61097 whole entry): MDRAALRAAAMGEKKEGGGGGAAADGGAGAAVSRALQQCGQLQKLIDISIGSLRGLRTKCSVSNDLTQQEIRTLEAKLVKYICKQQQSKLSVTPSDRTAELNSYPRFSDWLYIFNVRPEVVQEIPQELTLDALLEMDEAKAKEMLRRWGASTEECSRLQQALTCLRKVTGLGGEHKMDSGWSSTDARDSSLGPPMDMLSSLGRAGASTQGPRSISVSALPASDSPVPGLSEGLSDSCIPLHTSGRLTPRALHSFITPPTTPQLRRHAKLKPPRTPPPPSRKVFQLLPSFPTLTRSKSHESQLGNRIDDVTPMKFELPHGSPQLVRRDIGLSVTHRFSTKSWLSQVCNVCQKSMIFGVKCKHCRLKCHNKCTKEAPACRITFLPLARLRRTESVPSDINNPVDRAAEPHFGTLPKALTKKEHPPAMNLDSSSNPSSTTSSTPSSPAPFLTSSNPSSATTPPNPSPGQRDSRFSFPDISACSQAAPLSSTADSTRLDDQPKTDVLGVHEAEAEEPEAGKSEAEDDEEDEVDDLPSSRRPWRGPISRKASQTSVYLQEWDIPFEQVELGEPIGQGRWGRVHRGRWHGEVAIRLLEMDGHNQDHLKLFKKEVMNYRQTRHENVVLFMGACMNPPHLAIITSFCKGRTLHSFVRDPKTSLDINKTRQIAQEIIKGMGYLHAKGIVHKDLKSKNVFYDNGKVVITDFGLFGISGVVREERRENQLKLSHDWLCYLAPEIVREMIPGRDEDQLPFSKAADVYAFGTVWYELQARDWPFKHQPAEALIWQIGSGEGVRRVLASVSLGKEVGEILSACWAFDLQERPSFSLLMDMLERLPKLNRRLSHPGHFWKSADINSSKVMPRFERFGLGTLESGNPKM

## ERK (extracellular signal-regulated kinase), total ERK (from UniProt P63085 1-358) (natural protein)
  fold change of PLA spots per cell, EGF against vehicle: 4.36 fold

## pERK (phosphorylated ERK) (from UniProt P63085 1-358) (natural protein)
  fold change of PLA spots per cell, EGF against vehicle: 6.2 fold
